Laboratory results reported in patent publication US20200299370A1 (UNIVERSITY OF FLORIDA RESEARCH FOUNDATION, published 2020).
Changes are numbered by the printed parent chain. Blank lines part the entries; values can stand above or below the binder they belong to.

Assays:
[1] = target: T1, full-length S396A 2N/4R human tau phosphorylated in vitro with GSK3β (human, UniProt P10636 2-758, phosphorylated in vitro with GSK3β; sites not stated); assay: immunoblot, recombinant tau phosphorylated in vitro
T1 construct: Recombinant, E. coli BL21; also called S396A tau
Protocol: (§1) Tau proteins (0.2 mg/ml) were phosphorylated with either glycogen synthase kinase 3β (GSK3β; 2.5 U/μl; New England Biolabs, Ipswich, Mass.) or p42 mitogen-activated protein kinase (MAPK; 0.5 U/μl; New England Biolabs, Ipswich, Mass.) in 50 mM Tris, pH 7.5, 10 mM MgCl₂, 0.1 mM EDTA, 2 mM DTT, 0.1% Brij 35, ATP 200 μM for 2 hours at 30° C. followed by heat inactivation at 95° C. for 5 minutes. Samples were diluted in SDS-sample buffer and 100 ng of each tau protein was loaded on a separate lane on SDS-polyacrylamide gels for immunoblot analysis.
(§2) To determine the specificity of these monoclonal antibodies, full-length WT, S396A and 5404A 2N/4R human tau were in vitro phosphorylated with known tau kinases (p42 MAPK or GSK3β) and used these tau proteins for immunoblotting analysis (FIG. 1).

[2] = target: T2, full-length S404A 2N/4R human tau phosphorylated in vitro with GSK3β (human, UniProt P10636 2-758, phosphorylated in vitro with GSK3β; sites not stated); assay: as above
T2 construct: Recombinant, E. coli BL21; also called S404A tau; 5404A
Protocol: as §1, §2

[3] = target: T3, WT 0N/3R human tau phosphorylated in vitro with p42 MAPK or GSK3β (human, UniProt P10636 2-758, phosphorylated in vitro with p42 MAPK or with GSK3β; T205 (2N/4R numbering) phosphorylated by both, other sites not stated); assay: immunoblot, recombinant 0N/3R tau
T3 construct: recombinant, E. coli BL21; also called phosphorylated tau
Protocol: (§3) WT, S199A, 5202A and T205A 0N/3R tau (mutants numbered according to 2N/4R human tau) were incubated with p42 MAPK or GSK3β or without any kinase as described in “Material and Methods”. […] The mobilities of molecular mass markers are shown on the left.
as §1
(§4) To determine the specificity of these monoclonal antibodies, WT, S199A, 5202A and T205A 0N/3R human tau (mutations numbered according to the sequence of 2N/4R human tau) were phosphorylated with p42 MAPK or GSK3β and immunoblotting analysis was performed (FIG. 3).

[4] = target: T4, WT 0N/3R human tau, non-phosphorylated (incubated without any kinase) (human, UniProt P10636 2-758); assay: immunoblot, recombinant 0N/3R tau
T4 construct: Recombinant, E. coli BL21; also called non-phosphorylated tau
Protocol: as §3, §1, §4

[5] = target: T5, phosphopeptide DRSGYSpSPGpSPGpTPGSRSR (p193-211) (human, phosphoserine at residues 7 and 10 and phosphothreonine at 13 (S199, S202, T205 of 2N/4R tau); C residue added at the carboxy-terminus); assay: ELISA, hybridoma medium on plates coated with the unconjugated immunising peptide
T5 construct: Unconjugated synthetic peptide coated on ELISA plates; also called tau peptide p193-211
T5 peptide: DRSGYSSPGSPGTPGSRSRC

[6] = target: T6, T205A 0N/3R human tau phosphorylated in vitro with p42 MAPK or GSK3β (human, UniProt P10636 2-758, phosphorylated in vitro with p42 MAPK or with GSK3β; sites not stated); assay: immunoblot, recombinant 0N/3R tau phosphorylated in vitro
T6 construct: Two preparations, one for each kinase; also called phosphorylated T205A tau
Protocol: as §3, §1, §4

T6 sequence (P10636 other isoform, or with tags, fused parts or gaps T205A T205A limits assumed): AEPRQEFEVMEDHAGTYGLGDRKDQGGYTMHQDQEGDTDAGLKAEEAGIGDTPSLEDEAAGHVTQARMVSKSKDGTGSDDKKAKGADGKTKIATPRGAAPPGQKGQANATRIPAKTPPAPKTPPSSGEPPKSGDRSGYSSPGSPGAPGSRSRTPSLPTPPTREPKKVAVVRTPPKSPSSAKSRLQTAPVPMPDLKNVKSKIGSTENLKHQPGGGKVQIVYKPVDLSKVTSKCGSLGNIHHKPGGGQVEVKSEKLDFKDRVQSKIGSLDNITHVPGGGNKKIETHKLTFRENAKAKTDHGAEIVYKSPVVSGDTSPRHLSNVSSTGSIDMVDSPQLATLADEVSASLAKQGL
T2 sequence (P10636 other isoform, or with tags, fused parts or gaps S404A S404A limits assumed): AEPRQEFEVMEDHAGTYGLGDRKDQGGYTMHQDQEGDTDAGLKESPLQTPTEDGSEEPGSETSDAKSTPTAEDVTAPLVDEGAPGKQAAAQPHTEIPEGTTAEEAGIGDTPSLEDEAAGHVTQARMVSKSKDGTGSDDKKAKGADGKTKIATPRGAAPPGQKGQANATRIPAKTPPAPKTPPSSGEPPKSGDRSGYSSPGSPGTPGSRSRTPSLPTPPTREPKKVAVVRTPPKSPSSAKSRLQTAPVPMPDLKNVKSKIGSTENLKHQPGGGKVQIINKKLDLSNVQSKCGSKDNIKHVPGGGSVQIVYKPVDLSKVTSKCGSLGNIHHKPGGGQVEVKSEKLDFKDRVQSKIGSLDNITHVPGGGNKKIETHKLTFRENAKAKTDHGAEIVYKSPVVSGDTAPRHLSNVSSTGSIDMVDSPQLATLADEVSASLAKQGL
T1 sequence (P10636 other isoform, or with tags, fused parts or gaps S396A S396A limits assumed): as the sequence (P10636 other isoform, or with tags, fused parts or gaps S404A S404A limits assumed) above, with S395A, A403S counted along it
T4 sequence (P10636 other isoform, or with tags, fused parts or gaps limits assumed): as the sequence (P10636 other isoform, or with tags, fused parts or gaps T205A T205A limits assumed) above, with A146T counted along it
T3 sequence (P10636 other isoform, or with tags, fused parts or gaps limits assumed): as the sequence (P10636 other isoform, or with tags, fused parts or gaps T205A T205A limits assumed) above, with A146T counted along it

B1: PHF15 (antibody, V domains shown)
VH: EVQLVESGGGSVKPGGSLKLSCAASGFTFSSYALSWVRQTPEKRLEWVASITSGGSYTYFPDSVKGRFTISRDNAKNTLYLQMSSLRSEDTAMYYCTRPGNYDGAWCAYWGQGTLVTVSS
VL: DILLTQSPAILSVSPGERDSFSCRASQNIGTSIHWYQQRTNGSPRLLIKYASESISGIPSRFSGSGSGTDFTLSVNSVESEDVADYYCQQTKTWPTTFGAGTKLDLK
binding result [1]: no binding
binding result [2]: no binding

B2: PHF2 (antibody, V domains shown)
VH: B1 VH with L34M, S53R, A75T, N77D, P99Q, A108D, S120A
VL: DILLTQSPAILSVSPGERVSFSCRASQNIGTSIHWYQQRTNGSPRLLIKYTSESISGIPSRFGGSGSGTDFTLSVNGVESEDVADYYCQQTKTWPTTFGAGTKLELKR
binding result [1]: no binding
binding result [2]: no binding

B3: 2D1 (antibody, V domains shown)
VH: EVKLVESGGGLVQPGGSLRLSCATSGFTFTDFSMNWVRQPPGKALEWLGCVRDRAEGYTTEYSASVQGRFTISRDNSQSILYLQMNTLRPEDSATYYCARERAFAYWGQGTLVTVSA
VL: DIVMSQSPSSLAVSAGEKVTMSCKSSQSLLYSRNQKNYLAWYQQRPGQSPKLLIYWASSRESGVSDRFTGSGSGTDFTLTISSVKADDLAVYYCQQYYKSPLTFGAGTKLELKR
notes: also called clone 2D1
binding result [3]: binds
binding result [4]: binds
binding result [5]: binds

More lines, now with the values ahead:

binding result [6]: no binding
B4: 6G12 (antibody, V domains shown)
VH: EVNLEESGGGLVQPGGSMKLSCVASGFTFSDYWMNWVRQSPEKGLEWVAEIRLKSDNFATHYAESVKGRFTISRDDSKSSVYLQTNNLRAEDTGIYYCTLMRGDYGAEFAYWGQGTLAIVSA
VL: DIVMSQSPSSLAVSVGEKVTLTCKSSRSLLYRGNQENFLAWYQQKPGQSPKLLIYWASTRESGVPDRFTGSGSGTDFTLTINSVKAEDLAVYYCQQYYTYPYTFGGGTKLEIKR

binding result [6]: no binding
B5: 10G12 (antibody, V domains shown)
VH: EVKLEESGGGLVQPGGSMKLSCVASGFTFSNYWMNWVRQSPETGLEWVAEIRLKSYNYATHYAESVTGRFTISRDDSKNRVYLQMNNLGPDDTGIYYCTTGGAYHPFDYWGQGTTLTVSS
VL: B4 VL with L21M, R27Q, G33N, E36K, F38Y, N82S
notes: also called 10G2

binding result [6]: no binding
B6: 7F2 (antibody, V domains shown)
VH: B5 VH with E1Q, K3Q, E5Q, E6Q, G9A, G10E
VL: EIVLTQSIPSLTVSAGERVTINCKSNQNLLWSGNQRYCLVWHQWKPGQTPTPLITWTSDRYSGVPDRFIGGGSVTDFTLTISSVQAEDVALYFCQHHLHIPPWTFGGGTKLEIKR
notes: also called clone 7F2
